Laboratory results: patent US9187525B2, “Methods of treating ophthalmic diseases using NPR-B agonists” (Shire Orphan Therapies GmbH, dated 2015)
Numbered stars: 1 amine (or outer) side, 2 acyl side, 3 side chain; on linkers, the order of the positions; unused ones are H or OH. Square brackets hold non-standard residues; d marks the D form. Ends that are not written are not given here. * marks the point of attachment. aFL = (S)-2-((R)-3-amino-2-oxopyrrolidin-1-yl)-3-phenylpropanoic acid, O=C1[C@H](N[*:1])CCN1[C@@H](Cc1ccccc1)C(=O)[*:2]; afL = (R)-2-((R)-3-amino-2-oxopyrrolidin-1-yl)-3-phenylpropanoic acid, O=C1[C@H](N[*:1])CCN1[C@H](Cc1ccccc1)C(=O)[*:2]; 779 = 2-((1S,2R,4R)-bicyclo[2.2.1]heptan-2-yl)acetic acid, O=C(C[C@H]1C[C@@H]2CC[C@H]1C2)*; ctb = (S)-2-amino-3-(tert-butylthio)propanoic acid, CC(C)(C)SC[C@@H](N[*:1])C(=O)[*:2]; Eal = rac-imidazolidine-2-carboxylic acid, O=C(C1N([*:1])CCN1[*:3])[*:2]; 3218 = (S)-2-cyclopentylhexanoic acid, CCCC[C@H](C(=O)*)C1CCCC1; Pro(trans-4-NH2) = O=C([C@@H]1C[C@@H](N[*:3])CN1[*:1])[*:2]; 785 = 2-phenethyl-benzoic acid, O=C(c1ccccc1CCc1ccccc1)*; Sni = (S)-nipecotic acid, O=C([C@H]1CCCN([*:1])C1)[*:2]; 6013 = (2-butoxy-ethoxy)-acetic acid, CCCCOCCOCC(=O)*; Phe(3-CF3) = N[C@@H](Cc1cccc(C(F)(F)F)c1)C(=O)O; Phe(2-CF3) = N[C@@H](Cc1ccccc1C(F)(F)F)C(=O)O; Propanoyl(3-cHex) = O=C(CCC1CCCCC1)*; Gly(NCH2CH2Ph) = O=C(O)CNCCc1ccccc1; Gly(cPent) = N[C@H](C(=O)O)C1CCCC1; Hydrocinnamoyl = O=C(CCc1ccccc1)*; Hyp = O=C(O)[C@@H]1C[C@@H](O)CN1; ES‑283‑049 = not defined here; NMeL = CN[C@@H](CC(C)C)C(=O)O; Chg = N[C@H](C(=O)O)C1CCCCC1; Decanoyl = CCCCCCCCCC(=O)*; Nle = CCCC[C@H](N)C(=O)O; Nphe = O=C(O)CNCc1ccccc1; Octanoyl = CCCCCCCC(=O)*; Thz = O=C(O)[C@@H]1CSCN1; Che = not defined here; leu = not defined here; Occ = octanoic acid

T1: natriuretic peptide receptor-B (human)
T1 chain: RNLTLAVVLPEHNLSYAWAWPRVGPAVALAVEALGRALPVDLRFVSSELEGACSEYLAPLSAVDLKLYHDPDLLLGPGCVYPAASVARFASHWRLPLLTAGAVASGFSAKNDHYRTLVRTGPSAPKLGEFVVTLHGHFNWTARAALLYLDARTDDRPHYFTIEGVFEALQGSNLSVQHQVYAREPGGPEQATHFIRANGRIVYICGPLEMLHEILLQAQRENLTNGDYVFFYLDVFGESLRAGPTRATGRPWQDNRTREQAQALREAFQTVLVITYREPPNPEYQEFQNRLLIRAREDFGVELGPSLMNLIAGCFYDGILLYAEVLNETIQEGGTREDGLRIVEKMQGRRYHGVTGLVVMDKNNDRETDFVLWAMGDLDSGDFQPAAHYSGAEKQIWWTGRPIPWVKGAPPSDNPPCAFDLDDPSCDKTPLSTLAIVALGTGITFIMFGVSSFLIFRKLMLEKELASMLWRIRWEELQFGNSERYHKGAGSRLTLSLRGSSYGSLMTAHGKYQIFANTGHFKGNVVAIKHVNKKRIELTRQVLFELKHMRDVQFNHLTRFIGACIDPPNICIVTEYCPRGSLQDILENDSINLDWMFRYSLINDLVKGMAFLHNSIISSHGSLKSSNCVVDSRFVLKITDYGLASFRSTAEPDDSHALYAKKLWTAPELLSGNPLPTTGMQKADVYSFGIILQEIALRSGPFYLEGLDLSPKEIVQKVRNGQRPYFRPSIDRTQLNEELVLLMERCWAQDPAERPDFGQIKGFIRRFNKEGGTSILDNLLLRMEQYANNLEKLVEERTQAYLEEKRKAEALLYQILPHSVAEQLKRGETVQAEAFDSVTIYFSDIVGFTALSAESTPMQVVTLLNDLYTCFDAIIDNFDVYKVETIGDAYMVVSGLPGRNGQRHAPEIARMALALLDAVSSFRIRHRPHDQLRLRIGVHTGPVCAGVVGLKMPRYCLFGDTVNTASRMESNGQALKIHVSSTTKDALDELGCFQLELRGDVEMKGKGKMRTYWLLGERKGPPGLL

B1: JAL-1635 (peptide)
peptide: [Occ][Sni][Gly(NCH2CH2Ph)][leu]L[Hyp][NMeL]DRI-NH2
modifications: reading uncertain; also: printed as Occ-Sni-NHfe-leu-Leu-Hyp-Nml-Asp-Arg-Ile-NH2
B2: JAL-1639 (peptide)
peptide: [Occ][Sni]F[leu]L[Hyp][NMeL]D[Eal][Che]
modifications: reading uncertain; also: printed as Occ-Sni-Phe-leu-Leu-Hyp-Nml-Asp-Eal-Che
B3: JAL-1657 (peptide)
peptide: [Occ][Sni]F[leu][Nle][Hyp][NMeL]DP[Che]
modifications: reading uncertain; also: printed as Occ-Sni-Phe-leu-Nle-Hyp-Nml-Asp-Pro-Che
B4: JAL-1660 (peptide)
peptide: [785][Sni]F[leu]L[Hyp][NMeL]DRI-NH2
modifications: reading uncertain; also: printed as 785-Sni-Phe-leu-Leu-Hyp-Nml-Asp-Arg-Ile-NH2
B5: JAL-1646 (peptide)
peptide: [Occ][Sni]F[leu]L[Hyp][NMeL]D[ES‑283‑049]
modifications: reading uncertain; also: printed as Occ-Sni-Phe-leu-Leu-Hyp-Nml-Asp-(ES-283-049)
B6: JAL-1638 (peptide)
peptide: [Occ][Sni]F[leu]L[Hyp][NMeL]D[Thz][Che]
modifications: reading uncertain; also: printed as Occ-Sni-Phe-leu-Leu-Hyp-Nml-Asp-Eaz-Che
B7: JAL-1668 (peptide)
peptide: XGXFLLXXDRI
HELM: PEPTIDE1{[O=C(CCc1ccccc1)[*:2]].G.[O=C([C@H]1CCCN([*:1])C1)[*:2]].F.[dL].L.[Hyp].[meL].D.R.I.[am]}$$$$V2.0
SMILES: CC[C@H](C)[C@H](NC(=O)[C@H](CCCNC(=N)N)NC(=O)[C@H](CC(=O)O)NC(=O)[C@H](CC(C)C)N(C)C(=O)[C@@H]1C[C@@H](O)CN1C(=O)[C@H](CC(C)C)NC(=O)[C@@H](CC(C)C)NC(=O)[C@H](Cc1ccccc1)NC(=O)[C@H]1CCCN(C(=O)CNC(=O)CCc2ccccc2)C1)C(N)=O
B8: JAL-1626 (peptide)
peptide: [Occ][Sni]F[leu]L[Hyp][Gly(cPent)]DRI-NH2
modifications: reading uncertain; also: printed as Occ-Sni-Phe-leu-Leu-Hyp-Cpg-Asp-Arg-Ile-NH2
B9: JAL-0697 (peptide)
peptide: XXFGLKLDRI
HELM: PEPTIDE1{[CCCCCCCC(=O)[*:2]].[O=C(C1CCCN([*:1])C1)[*:2]].F.G.L.K.L.D.R.I.[am]}$$$$V2.0
SMILES: CCCCCCCC(=O)N1CCCC(C(=O)N[C@@H](Cc2ccccc2)C(=O)NCC(=O)N[C@@H](CC(C)C)C(=O)N[C@@H](CCCCN)C(=O)N[C@@H](CC(C)C)C(=O)N[C@@H](CC(=O)O)C(=O)N[C@@H](CCCNC(=N)N)C(=O)N[C@H](C(N)=O)[C@@H](C)CC)C1
B10: JAL-1623 (peptide)
peptide: [Occ][Sni]F[ctb]L[Hyp][NMeL]DRI-NH2
B11: JAL-1666 (peptide)
peptide: [Decanoyl][Sni]F[leu]L[Hyp][NMeL]DRI-NH2
modifications: reading uncertain; also: printed as 5587-Sni-Phe-leu-Leu-Hyp-Nml-Asp-Arg-Ile-NH2
B12: JAL-1621 (peptide)
peptide: [Occ][Sni][Phe(3-CF3)][leu]L[Hyp][NMeL]DRI-NH2
modifications: reading uncertain; also: printed as Occ-Sni-Mtf-leu-Leu-Hyp-Nml-Asp-Arg-Ile-NH2
B13: JAL-1627 (peptide)
peptide: [Occ][Sni]F[leu]L[Hyp][Chg]DRI-NH2
modifications: reading uncertain; also: printed as Occ-Sni-Phe-leu-Leu-Hyp-Chg-Asp-Arg-Ile-NH2
B14: JAL-1634 (peptide)
peptide: [Occ][Sni][Nphe][leu]L[Hyp][NMeL]DRI-NH2
modifications: reading uncertain; also: printed as Occ-Sni-NPhe-leu-Leu-Hyp-Nml-Asp-Arg-Ile-NH2
B15: JAL-1637 (peptide)
peptide: [Occ][afL][leu]L[Hyp][NMeL]DRI-NH2
modifications: reading uncertain; also: printed as Occ-(afL)-leu-Leu-Hyp-Nml-Asp-Arg-Ile-NH2
B16: JAL-1652 (peptide)
peptide: [Occ][Sni]F[leu]L[Hyp][NMeL]EP[Che]
modifications: reading uncertain; also: printed as Occ-Sni-Phe-leu-Leu-Hyp-Nml-Glu-Pro-Che
B17: JAL-1654 (peptide)
peptide: [Occ][Sni]F[leu]L[Pro(trans-4-NH2)][NMeL]VP[Che]
modifications: reading uncertain; also: printed as Occ-Sni-Phe-leu-Leu-Tap-Nml-Val-Pro-Che
B18: JAL-0703 (peptide)
peptide: {Propanoyl(3-cHex)}-[dA][dA]FGLKLDRI-NH2
B19: JAL-1624 (peptide)
peptide: [Occ][Sni]F[leu][Nle][Hyp][NMeL]DRI-NH2
modifications: reading uncertain; also: printed as Occ-Sni-Phe-leu-Nle-Hyp-Nml-Asp-Arg-Ile-NH2
B20: JAL-1659 (peptide)
peptide: [779][Sni]F[leu]L[Hyp][NMeL]DRI-NH2
modifications: reading uncertain; also: printed as 779-Sni-Phe-leu-Leu-Hyp-Nml-Asp-Arg-Ile-NH2
B21: JAL-1622 (peptide)
peptide: [Occ][Sni][Phe(2-CF3)][leu]L[Hyp][NMeL]DRI-NH2
modifications: reading uncertain; also: printed as Occ-Sni-Otf-leu-Leu-Hyp-Nml-Asp-Arg-Ile-NH2
B22: JAL-1636 (peptide)
peptide: [Occ][aFL][leu]L[Hyp][NMeL]DRI-NH2
modifications: reading uncertain; also: printed as Occ-(aFL)-leu-Leu-Hyp-Nml-Asp-Arg-Ile-NH2
B23: JAL-1625 (peptide)
peptide: [Occ][Sni]F[leu]L[Hyp]IDRI-NH2
modifications: reading uncertain; also: printed as Occ-Sni-Phe-leu-Leu-Hyp-Ile-Asp-Arg-Ile-NH2
B24: JAL-1664 (peptide)
peptide: [3218][Sni]F[leu]L[Hyp][NMeL]DRI-NH2
modifications: reading uncertain; also: printed as 3218-Sni-Phe-leu-Leu-Hyp-Nml-Asp-Arg-Ile-NH2
B25: JAL-1665 (peptide)
peptide: [6013][Sni]F[leu]L[Hyp][NMeL]DRI-NH2
modifications: reading uncertain; also: printed as 6013-Sni-Phe-leu-Leu-Hyp-Nml-Asp-Arg-Ile-NH2
B26: JAL-1661 (peptide)
peptide: [Hydrocinnamoyl][Sni]F[leu]L[Hyp][NMeL]DRI-NH2
modifications: reading uncertain; also: printed as 1281-Sni-Phe-leu-Leu-Hyp-Nml-Asp-Arg-Ile-NH2
B27: JAL-0701 (peptide)
peptide: Octanoyl-[dA][dA]FGLKLDRI-NH2

Target: T1, natriuretic peptide receptor-B
Assay: cell-based or functional assay

B1 and B2 cannot be ordered by “EC50 group, cGMP in GTM-3 cells” value: no more than 15 µM for the first, no more than 5 µM for the second.

B3 and B4 cannot be ordered by “EC50 group, cGMP in GTM-3 cells” value: no more than 1 µM for the first, no more than 15 µM for the second.

B5 and B6 cannot be ordered by “EC50 group, cGMP in GTM-3 cells” value: no more than 5 µM for the first, no more than 1 µM for the second.

B7 and B8 cannot be ordered by “EC50 group, cGMP in GTM-3 cells” value: no more than 15 µM for the first, no more than 1 µM for the second.

B9 and B10 cannot be ordered by “EC50 group, cGMP in GTM-3 cells” value: no more than 5 µM for the first, no more than 1 µM for the second.

B11 and B12 cannot be ordered by “EC50 group, cGMP in GTM-3 cells” value: no more than 1 µM for the first, no more than 1 µM for the second.

B13 and B14 cannot be ordered by “EC50 group, cGMP in GTM-3 cells” value: no more than 5 µM for the first, no more than 15 µM for the second.

B15 and B16 cannot be ordered by “EC50 group, cGMP in GTM-3 cells” value: no more than 5 µM for the first, no more than 5 µM for the second.

B17 and B18 cannot be ordered by “EC50 group, cGMP in GTM-3 cells” value: no more than 1 µM for the first, no more than 15 µM for the second.

B19 and B20 cannot be ordered by “EC50 group, cGMP in GTM-3 cells” value: no more than 1 µM for the first, no more than 5 µM for the second.

B21 and B22 cannot be ordered by “EC50 group, cGMP in GTM-3 cells” value: no more than 15 µM for the first, no more than 5 µM for the second.

B23 and B24 cannot be ordered by “EC50 group, cGMP in GTM-3 cells” value: no more than 1 µM for the first, no more than 15 µM for the second.

B25 and B26 cannot be ordered by “EC50 group, cGMP in GTM-3 cells” value: no more than 5 µM for the first, no more than 5 µM for the second.

B27 was tested, and the “EC50 group, cGMP in GTM-3 cells” value was no more than 5 µM.
